This data set concerns the molecule itself. The experiment in a line: crystal structure.

The values below come from PMC7340271 (IUCrJ, 2020).

Several values for one entry are separate records, joined by “and”; a condition that tells them apart may be missing. Equal entries are not always repeated.

B1: N-terminal lipid-binding domain of Mycobacterium tuberculosis Wag31 (residues 2-60) (domain or fragment)
chain: PLTPADVHNVAFSKPPIGKRGYNEDEVDAFLDLVENELTRLIEENSDLRQRINELDQEL
notes: Assembly states reported: parallel coiled-coil dimer (asymmetric unit), tetramer ('dimer-of-dimers'); also called N-Wag31; N-terminal Wag31
Take B1: the stoichiometry N (in general, the number of molecules, sites or subunits per partner or assembly) is 2 and 4.
